Source: article PMC6726503 (2019)

T1: TGF-β2 (Homo sapiens, UniProt P61812)
T1 chain: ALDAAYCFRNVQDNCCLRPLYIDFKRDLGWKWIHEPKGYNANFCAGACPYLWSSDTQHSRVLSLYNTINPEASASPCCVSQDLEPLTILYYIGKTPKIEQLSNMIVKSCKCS

B1: betaglycan O (protein)
chain: GPEPSTRCELSPINASHPVQALMESFTVLSGCASRGTTGLPREVHVLNLRSTDQGPGQRQREVTLHLNPIASVHTHHKPIVFLLNSPQPLVWHLKTERLAAGVPRLFLVSEGSVVQFPSGNFSLTAETEERNFPQENEHLLRWAQKEYGAVTSFTELKIARNIYIKVGEDQVFPPTCNIGKNFLSLNYLAEYLQPKAAEGCVLPSQPHEKEVHIIELITPSSNPYSAFQVDIIVDIRPAQEDPEVVKNLVLILKCKKSVNWVIKSFDVKGNLKVIAPNSIGFGKESERSMTMTKLVRDDIPSTQENLMKWALDNGYRPVTSYTMAPVANRFHLRLENNEEMRDEEVHTIPPELRILLDPDHPPALDNPLFPGEGSPNGGLPFPFPD
B2: betaglycan O-ZP (protein)
chain: GPEPSTRCELSPINASHPVQALMESFTVLSGCASRGTTGLPREVHVLNLRSTDQGPGQRQREVTLHLNPIASVHTHHKPIVFLLNSPQPLVWHLKTERLAAGVPRLFLVSEGSVVQFPSGNFSLTAETEERNFPQENEHLLRWAQKEYGAVTSFTELKIARNIYIKVGEDQVFPPTCNIGKNFLSLNYLAEYLQPKAAEGCVLPSQPHEKEVHIIELITPSSNPYSAFQVDIIVDIRPAQEDPEVVKNLVLILKCKKSVNWVIKSFDVKGNLKVIAPNSIGFGKESERSMTMTKLVRDDIPSTQENLMKWALDNGYRPVTSYTMAPVANRFHLRLENNEEMRDEEVHTIPPELRILLDPDHPPALDNPLFPGEGSPNGGLPFPFPDIPRRGWKEGEDRIPRPKQPIVPSVQLLPDHREPEEVQGGVDIALSVKCDHEKMVVAVDKDSFQTNGYSGMELTLLDPSCKAKMNGTHFVLESPLNGCGTRHRRSTPDGVVYYNSIVVQAPSPGDSSGWPDGYEDLESGDNGFPGDGDEGETAPLSRAGVVVFNCSLRQLRNPSGFQGQLDGNATFNMELYNTDLFLVPSPGVFSVAENEHVYVEVSVTKADQDLGFAIQTCFLSPYSNPDRMSDYTIIENICPKDDSVKFYSSKRVHFPIPHAEVDKKRFSFLFKSVFNTSLLFLHCELTLCSRKKGSLKLPRCVTPDDACTSLDATMIWTMMQNKKTFTKPLAVVLQVDYKENVPSTKDSSPIPPPPPQIFHGLDTL

Target: T1, TGF-β2
Experiment: SPR

Binder | Kd [nM]
B1 | 10
B2 | 0.5
